Substitutions are numbered along the chain they refer to.
Tests used:
Assay in all cases: pull-down
[1] = molecular target: T1, GST-tagged wild-type PI31 (GST-PI31-WT) (Drosophila melanogaster, UniProt Q9V637 1-270)
T1 sequence (looked up): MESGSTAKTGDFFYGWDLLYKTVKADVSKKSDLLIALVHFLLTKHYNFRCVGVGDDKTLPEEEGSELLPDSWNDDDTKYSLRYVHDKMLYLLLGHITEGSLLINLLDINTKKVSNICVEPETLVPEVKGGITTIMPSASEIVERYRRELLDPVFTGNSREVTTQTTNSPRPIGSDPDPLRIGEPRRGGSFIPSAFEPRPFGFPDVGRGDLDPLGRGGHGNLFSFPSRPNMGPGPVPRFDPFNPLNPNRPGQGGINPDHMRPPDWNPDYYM

[2] = molecular target: T2, GST-PI31-S168D (phospho-mimetic mutant) (Drosophila melanogaster, UniProt Q9V637 1-270, S168D)
T2 sequence (looked up): T1 sequence (looked up) with S168D

[3] = molecular target: T3, GST-PI31-S168E (phospho-mimetic mutant) (Drosophila melanogaster, UniProt Q9V637 1-270, S168E)
T3 sequence (looked up): T1 sequence (looked up) with S168E

Measured: binding result

B1: recombinant FLAG-dDYNLL1 expressed in E. coli (natural protein, Drosophila melanogaster, UniProt Q24117 1-89, looked up)
chain: MSDRKAVIKNADMSEEMQQDAVDCATQALEKYNIEKDIAAYIKKEFDKKYNPTWHCIVGRNFGSYVTHETRHFIYFYLGQVAILLFKSG
binds: [1] | [2] | [3]
